Measurements published in US20190032060.

Experiments:
[1] = target: T1, Insulin receptor (extracellular domain) (Homo sapiens?) (UniProt P06213+P06213); experiment: FP; conditions: 6 Nap-dU stated (n positions) [n positions 3,4,10,14,16,20,24 = modified dU]; filter binding assay in fact (see method p97-p99); 200 mM HEPES, 510 mM NaCl, 25 mM KCl, 25 mM MgCl2, 37 C
[2] = target: Insulin receptor, endogenous on 3T3-L1 adipocytes (UniProt P15208+P15208); experiment: cell_activity; conditions: 6 Nap-dU (n positions) [n positions 8,10,11,21,23,27 = modified dU]; 2-deoxyglucose uptake, 4 h treatment
[3] = target: T1, Insulin receptor (extracellular domain); experiment: filter; conditions: 200 mM HEPES, 510 mM NaCl, 25 mM KCl, 25 mM MgCl2, 37 C

Chain of Insulin receptor, endogenous on 3T3-L1 adipocytes (P15208 28-748, chain 1 of 2): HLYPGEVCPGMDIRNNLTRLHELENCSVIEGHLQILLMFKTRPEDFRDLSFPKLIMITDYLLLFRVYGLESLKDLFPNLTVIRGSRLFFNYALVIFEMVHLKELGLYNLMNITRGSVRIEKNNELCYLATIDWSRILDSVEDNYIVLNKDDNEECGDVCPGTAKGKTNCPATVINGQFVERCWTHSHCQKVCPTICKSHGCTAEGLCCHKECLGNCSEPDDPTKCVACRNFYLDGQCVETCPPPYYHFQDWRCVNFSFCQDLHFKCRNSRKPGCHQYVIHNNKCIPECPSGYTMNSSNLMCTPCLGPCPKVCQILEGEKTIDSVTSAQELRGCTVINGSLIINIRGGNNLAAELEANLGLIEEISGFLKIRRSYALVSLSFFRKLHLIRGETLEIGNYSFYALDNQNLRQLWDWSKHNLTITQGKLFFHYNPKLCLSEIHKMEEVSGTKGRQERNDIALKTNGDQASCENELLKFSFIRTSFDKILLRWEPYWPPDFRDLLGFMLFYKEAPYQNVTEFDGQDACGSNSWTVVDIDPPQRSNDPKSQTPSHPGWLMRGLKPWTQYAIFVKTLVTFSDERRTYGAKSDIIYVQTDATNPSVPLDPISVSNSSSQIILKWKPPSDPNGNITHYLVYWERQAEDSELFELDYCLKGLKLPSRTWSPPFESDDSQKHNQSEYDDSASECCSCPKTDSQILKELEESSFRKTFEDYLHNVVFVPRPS
Chain of Insulin receptor, endogenous on 3T3-L1 adipocytes (P15208 753-1372, chain 2 of 2): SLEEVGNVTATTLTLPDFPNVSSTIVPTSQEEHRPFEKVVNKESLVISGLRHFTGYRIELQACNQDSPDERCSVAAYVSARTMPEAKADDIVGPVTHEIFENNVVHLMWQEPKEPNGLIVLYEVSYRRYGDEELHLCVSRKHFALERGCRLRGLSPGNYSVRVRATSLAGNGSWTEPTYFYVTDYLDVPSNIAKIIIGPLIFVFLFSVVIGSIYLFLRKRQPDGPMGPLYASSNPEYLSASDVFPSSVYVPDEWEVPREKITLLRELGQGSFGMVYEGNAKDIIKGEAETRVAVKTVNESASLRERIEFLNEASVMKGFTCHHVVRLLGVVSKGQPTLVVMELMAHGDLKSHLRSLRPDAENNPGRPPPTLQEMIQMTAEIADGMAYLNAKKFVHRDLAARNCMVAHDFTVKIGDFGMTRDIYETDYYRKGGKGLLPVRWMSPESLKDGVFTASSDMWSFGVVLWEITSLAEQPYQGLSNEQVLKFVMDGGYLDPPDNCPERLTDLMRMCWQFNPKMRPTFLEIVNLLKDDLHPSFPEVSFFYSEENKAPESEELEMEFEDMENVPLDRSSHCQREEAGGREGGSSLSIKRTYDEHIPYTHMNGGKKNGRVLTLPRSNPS

With CATTACGCATGAGTCTAGATCCGTCAG [IR-A62] the Kd [1] was 2.4 nM.
In the case of “CGCCTGGTGTTAAGACAACCTCTAGGTCAGGCG [IR-A48]”, the EC50 [2] is reported as 66.2 nM and the Kd ([3]; 6 Nap-dU (n positions) [n positions 8,10,11,21,23,27 = modified dU]) is reported as 3.5 nM.
In the case of “TATGAGTGACCGTCCGCCTGGTGTTAAGACAACCTCTAGGTCAGGCGCAGTGACGGGTAGCAGCCACACCACCAGCCAAA [IR-A48F]”, the Kd ([3]; 8 Nap-dU in the variable region (n positions) [n positions 22,24,25,35,37,41,51,58 = modified dU]) is reported as 6.9 nM.
